According to patent US20240043551A1 (ADLAI NORTYE BIOPHARMA, published 2024):

Key:
[1] = biological target: T1, Human TNFR1 (Acro Biosystem, TN1-H5222) (human, UniProt P19438 30-211); experiment: ELISA, receptor coated at 1 µg/mL
T1 construct: Bought protein; also called TNF receptor type 1; CD120a
T1 sequence (looked up): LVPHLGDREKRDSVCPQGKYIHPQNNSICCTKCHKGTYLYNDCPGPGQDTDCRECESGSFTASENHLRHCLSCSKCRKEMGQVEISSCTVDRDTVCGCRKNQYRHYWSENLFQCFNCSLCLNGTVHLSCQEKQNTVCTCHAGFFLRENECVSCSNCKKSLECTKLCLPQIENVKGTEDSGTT
Procedure: (§1) Human TNFR2 (Acro Biosystem, TN2-H5227), Human TNFR1 (Acro Biosystem, TN1-H5222), Cynomolgus TNFR2 (Sino Biological, 90102-CO8H) or mouse TNFR2 (R&D systems, 426-R2-050/CF) was coated on high binding polystyrene flat bottom micro-titer plates (Thermo Scientific, 3455) in PBS (PH=7.4, Gibco,10010-031) at 1 μg/mL and 100 μL per well. Plates were incubated at 4° C. overnight.
(§2) Plates were warmed up to room temperature the next day and washed with 200 μL PBS containing 0.1% Tween 20 (Life technologies, 003005) per well for 3 times. Plates were blocked with 200 μL PBS buffer containing 1% BSA (Fisher Scientific, BP1600-100) per well for 1 hour at 37° C. Antibodies was titrated from 5 μg/mL in a 5-fold dilution series, distributed 100 μL per well and incubated at 37° C. for 1 hour. Human IgG1 isotype control (BioxCell, BE0297) was used as negative control. Plates were washed with 200 μL PBS containing 0.1% Tween 20 (Life technologies, 003005) per well for 3 times. Goat anti-Human IgG Fc Secondary Antibody-HRP conjugate (Invitrogen, A18817) were distributed at 0.5μg/mL and 100 μL per well to detect bound antibodies. After 1-hour incubation of secondary antibody at 37° C., plates were washed with 200 μL PBS containing 0.1% Tween 20 (Life technologies, 003005) per well for 3 times. Plates were developed using TMB Substrate Solution (eBioscience, 00-4201-56) and stopped with ELISA stop solution (Invitrogen, SSO4). The level of bound antibodies was determined by reading absorbance at 450 nm. Mouse anti-human TNFR1 antibody (ThermoFisher Scientific, MA1-81005) and goat anti mouse IgG secondary antibody-HRP conjugate (Invitrogen, 62-5520) were used as positive control for human TNFR1 detection. Armenian Hamster anti-mouse TNFR2 antibody (InVivoMab, BE0247) and HRP-Goat anti-Armenian Hamster IgG (H+L) Secondary Antibody (Invitrogen, PA1-32045) were used as positive control for mouse TNFR2 detection.

[2] = biological target: T2, mouse TNFR2 (R&D systems, 426-R2-050/CF) (mouse, UniProt P25119 23-258); experiment: ELISA, receptor coated at 1 µg/mL
T2 construct: Bought protein
T2 sequence (looked up): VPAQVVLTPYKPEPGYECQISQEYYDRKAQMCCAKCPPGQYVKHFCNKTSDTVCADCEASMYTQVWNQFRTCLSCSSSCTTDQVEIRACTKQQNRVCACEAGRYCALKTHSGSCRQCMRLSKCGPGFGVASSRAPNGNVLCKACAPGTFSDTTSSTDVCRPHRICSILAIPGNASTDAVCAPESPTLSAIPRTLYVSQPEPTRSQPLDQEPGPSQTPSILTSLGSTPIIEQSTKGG
Procedure: as §1, §2

[3] = biological target: T3, rat TNFR2 (R&D systems, 8348-R2-050) (rat, UniProt Q80WY6 23-258); experiment: ELISA, receptor coated at 1 µg/ml
T3 construct: Bought protein
T3 sequence (looked up): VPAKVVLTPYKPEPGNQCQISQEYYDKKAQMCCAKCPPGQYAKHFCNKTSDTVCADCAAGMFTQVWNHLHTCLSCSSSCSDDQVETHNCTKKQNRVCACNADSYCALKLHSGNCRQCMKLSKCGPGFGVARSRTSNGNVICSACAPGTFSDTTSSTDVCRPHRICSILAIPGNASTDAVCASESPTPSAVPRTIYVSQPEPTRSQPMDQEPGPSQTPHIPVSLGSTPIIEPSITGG
Procedure: Plates were incubated at 4° C. overnight. Antibodies was titrated from 100 μg/ml in a 5-fold dilution series, and distributed 100 μL, per well and incubated at 37° C. for 1 hour. Human IgG1 isotype control (BioxCell, BE0297) was used as negative control. TNFR2 Polyclonal Antibody (Invitrogen, PAS-80159) and HRP conjugated Goat anti-Rabbit IgG Fc Secondary Antibody (Invitrogen, A16116) were used as positive control for rat TNFR2 detection.

[4] = biological target: T4, His tagged human TNFR2 ECD (Acro Biosystem, TN2-H5227) (human, UniProt P20333 23-257); experiment: ELISA, TNFR2-His coated, antibody 0.006 and 0.06 µg/well
T4 construct: extracellular domain; Bought protein; also called TNFR2-His; hTNFR2-His; not shown: His tag
T4 sequence (looked up): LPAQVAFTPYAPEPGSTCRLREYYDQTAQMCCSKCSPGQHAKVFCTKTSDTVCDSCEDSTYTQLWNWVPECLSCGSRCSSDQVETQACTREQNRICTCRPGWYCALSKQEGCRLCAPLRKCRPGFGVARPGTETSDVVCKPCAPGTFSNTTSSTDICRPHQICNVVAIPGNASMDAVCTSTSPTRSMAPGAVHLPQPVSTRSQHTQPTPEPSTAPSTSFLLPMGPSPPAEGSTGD

[5] = biological target: T5, Full length human TNFR2 on Jurkat E6-1 cells (Clone NO.3) (human, UniProt P20333 23-461); experiment: FACS on human TNFR2+ Jurkat Clone No.3, biotinylated antibody with streptavidin-PE
T5 construct: whole, on cells; also called human TNFR2+ Jurkat cells; hTNFR2 Jurkat
T5 sequence (looked up): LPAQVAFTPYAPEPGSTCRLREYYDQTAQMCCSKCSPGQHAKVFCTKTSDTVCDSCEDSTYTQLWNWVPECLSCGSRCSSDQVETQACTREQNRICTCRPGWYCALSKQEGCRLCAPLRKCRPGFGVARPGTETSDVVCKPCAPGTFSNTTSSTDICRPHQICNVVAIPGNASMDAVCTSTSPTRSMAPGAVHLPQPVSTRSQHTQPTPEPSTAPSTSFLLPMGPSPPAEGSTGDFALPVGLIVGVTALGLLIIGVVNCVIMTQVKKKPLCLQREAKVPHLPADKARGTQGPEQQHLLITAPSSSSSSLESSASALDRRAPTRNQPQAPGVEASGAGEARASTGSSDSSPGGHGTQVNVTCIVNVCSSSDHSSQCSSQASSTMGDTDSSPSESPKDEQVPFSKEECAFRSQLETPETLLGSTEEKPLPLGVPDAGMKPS
Procedure: FACS analysis was used to evaluate the binding of purified anti-TNFR2 antibody candidates produced from example 6 to cell surface TNFR2 target. Anti-human TNFR2 antibodies and negative control IgG were biotinylated using a EZ-Link™ Micro Sulfo-NHS-Biotinylation Kit (Thermo Fisher Scientific, 21925) according to manufacturer's instructions. Biotinylated antibodies (100 μg/mL) were then incubated with Halt™ Protease Inhibitor Cocktail (100X, Thermo Scientific, 1862209) and 80 μg/mL Streptavidin-R-Phycoerythrin (PE) conjugate (Invitrogen, S21388). Antibodies were stored at 4° C. until use. 5×10⁵ Clone No.3 of human TNFR2⁺ Jurkat cells were distributed each well and blocked with human TruStain FcX™ (Biolegend, 422302) for 10 minutes at room temperature before stained with a serially diluted PE conjugated anti-human TNFR2 antibodies or hIgG1 starting from 50 μg/mL in a 5-fold dilution fashion for 30 minutes at 4° C. PE-anti hTNFR2 (Clone MR2-1, Thermo fisher #TNFR7504) was used as positive control. The geometric mean fluorescent intensity was measured on Sony SA3800 cell analyzer. Data were analyzed using Flowjo Software (Tree star Inc).

- binding result [4]: binds
- binding result [5]: binds
B1: TN36-2 (antibody, human IgG1, V domains shown)
VH: EVQLVESGGGLIQPGGSLRLSCAASGFSLSSSAVSWVRQAPGKGLEWIGAIGSGGTSYYSNWAKSRFTISRDNSKNTLYLQMNSLRAEDTAVYYCARDPNSSDYPYGAYGMGLWGRGTLVTVSS
VL: DIQMTQSPSSLSASVGDRVTITCQVSQSISSYLSWYQQKPGKAPKLLIYYASTLASGVPSRFSGSGSGTDFTLTISSLQPEDFATYYCQQGYITSNVGNAFGGGTKVEIK
notes: Humanized; also called AL2/AL8
- binding result [1]: no binding (tested: titrated from 5 µg/mL)
- binding result [2]: no binding (tested: titrated from 5 µg/mL)
- binding result [3]: no binding (tested: titrated from 100 µg/ml)
